Measurements: US20160017037A1 (GlaxoSmithKline, published 2016)

T1: Recombinant cynomolgus macaque LAG-3 ECD-His6 (cynomolgus macaque, UniProt P18627 24-433 (human entry))
T1 construct: In-house generated; also called cyno LAG-3
T1 chain: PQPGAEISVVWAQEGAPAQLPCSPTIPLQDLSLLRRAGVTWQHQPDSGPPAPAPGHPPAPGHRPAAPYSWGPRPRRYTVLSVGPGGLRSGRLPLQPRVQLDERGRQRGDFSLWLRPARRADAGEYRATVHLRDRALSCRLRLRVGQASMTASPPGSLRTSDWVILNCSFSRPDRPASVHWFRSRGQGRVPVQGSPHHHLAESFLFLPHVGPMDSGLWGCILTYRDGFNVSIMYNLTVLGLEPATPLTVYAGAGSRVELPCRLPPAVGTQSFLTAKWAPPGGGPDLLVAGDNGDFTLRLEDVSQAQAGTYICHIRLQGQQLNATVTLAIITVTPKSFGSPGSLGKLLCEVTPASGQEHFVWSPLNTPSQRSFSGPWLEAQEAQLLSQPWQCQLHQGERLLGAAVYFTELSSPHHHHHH

T2: Recombinant human LAG-3 ECD-His6 (human, UniProt P18627 23-433)
T2 construct: also called LAG-3-His; recombinant human LAG-3-His
T2 sequence: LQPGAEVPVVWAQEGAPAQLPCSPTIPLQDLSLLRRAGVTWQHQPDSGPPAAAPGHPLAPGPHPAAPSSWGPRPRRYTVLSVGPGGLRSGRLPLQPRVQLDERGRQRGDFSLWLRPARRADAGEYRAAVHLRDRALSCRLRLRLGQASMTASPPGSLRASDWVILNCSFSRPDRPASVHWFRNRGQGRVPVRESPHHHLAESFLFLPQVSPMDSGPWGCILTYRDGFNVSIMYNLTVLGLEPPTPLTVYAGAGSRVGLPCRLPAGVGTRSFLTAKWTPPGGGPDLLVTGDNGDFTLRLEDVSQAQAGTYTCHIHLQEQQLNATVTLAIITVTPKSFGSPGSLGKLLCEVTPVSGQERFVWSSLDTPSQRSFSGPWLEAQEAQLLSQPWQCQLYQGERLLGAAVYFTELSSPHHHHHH

T3: Human LAG-3 on cells (human LAG-3 expressing EL4 cells; activated human CD3+ T cells) (human, UniProt P18627 23-525)
T3 construct: whole, on cells; also called LAG-3 positive T cells
T3 sequence (looked up): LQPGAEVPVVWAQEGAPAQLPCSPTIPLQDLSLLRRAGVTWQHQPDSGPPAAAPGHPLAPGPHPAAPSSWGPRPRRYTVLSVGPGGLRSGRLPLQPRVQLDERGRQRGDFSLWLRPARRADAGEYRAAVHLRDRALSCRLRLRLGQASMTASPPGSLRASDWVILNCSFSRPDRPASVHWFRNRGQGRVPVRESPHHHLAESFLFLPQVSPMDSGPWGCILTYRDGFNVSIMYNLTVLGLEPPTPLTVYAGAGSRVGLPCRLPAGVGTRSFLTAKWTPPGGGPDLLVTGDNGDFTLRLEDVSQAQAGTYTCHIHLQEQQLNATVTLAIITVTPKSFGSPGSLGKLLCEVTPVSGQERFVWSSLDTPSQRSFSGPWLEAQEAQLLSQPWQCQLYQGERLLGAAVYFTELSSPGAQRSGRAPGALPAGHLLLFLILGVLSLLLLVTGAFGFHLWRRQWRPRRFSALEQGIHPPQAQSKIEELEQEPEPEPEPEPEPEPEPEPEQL


Key:
[1] = biological target: T1, Recombinant cynomolgus macaque LAG-3 …; test: SPR Biacore T100 (orthologues at 37 C, human at 25 C)
Experimental: (§1) Wild type fucosylated and afucosylated antibodies were compared for their ability to bind to recombinant human LAG-3 ECD with a C-terminal His6 (SEQ ID NO:51) using the Biacore™ T100 (GE Healthcare™). Protein A was immobilised on a CM5 chip by primary amine coupling. This surface was then used to capture the humanised antibodies. Recombinant human LAG-3 ECD-His6 was then passed over the captured antibodies at 32, 8, 2, 0.5 and 0.125 nM and regeneration was carried out using 50 mM NaOH. The binding curves were double referenced with buffer injection (i.e. 0 nM) and the data was fitted to the T100 analysis software using the 1:1 model. The run was carried out at 25° C., using HBS-EP as the running buffer.
Protein A was immobilised on a CM5 chip by primary amine coupling. This surface was then used to capture the humanised antibodies. In-house generated recombinant cynomolgus macaque and baboon LAG-3 ECD-His6 were then passed over the captured antibodies and regeneration was carried out using 50 mM NaOH. LAG-3 ECD-His6 was passed over at 16, 4, 1, 0.25 and 0.0625 nM. The binding curves were double referenced with buffer injection (i.e. 0 nM) and the data was fitted to the T100 analysis software using the 1:1 model. The run was carried out at 37° C. using HBS-EP as the running buffer.

[2] = biological target: T2, Recombinant human LAG-3 ECD-His6; test: SPR Biacore T100, antibody captured on Protein A, LAG-3 ECD-His6 analyte, 1:1 model, 25 C, geometric mean of 3 runs (table head says nM; value is in M by paragraph 194)
Experimental: as §1
In order to investigate the statistical significance of this kinetic data, this experiment was repeated 3 times with the same batch of the four antibodies and the chimeric control. KD, ka and kd parameters were each log (base 10) transformed prior to separate statistical analyses. For each parameter, a mixed model analysis of variance CAnova′) was performed on transformed data, including terms for Run (random block effect) and Antibody.

[3] = biological target: T3, Human LAG-3 on cells (human LAG-3 …); test: flow cytometry (MFI), Alexa647-conjugated antibody titrated on activated human CD3+ T cells; direct binding curve, half-maximal value labelled IC50 in the table under the graph; unit taken from the concentration axis
Experimental: CD3⁺ T cells were prepared from PBMCs by negative selection using Untouched Human T cell Dynal beads. CD3⁺ T cells were activated by incubation with immobilised anti-CD3 and anti-CD28 and soluble recombinant human IL-12 for 3 days at 37° C. Activated cells were incubated with Alexa 647-conjugated antibodies of varying concentrations up to 3 μg/ml for 30 minutes at room temperature. Cells were washed with FACS buffer (PBS+0.5% BSA).
(§2) EL4 cells and CD3⁺ T cells were analysed by FACS using a Beckman Coulter FC 500 flow cytometer. FACS raw data were analysed using CXP Analysis software (Beckman Coulter). The data was initially plotted on a forward-scatter versus side-scatter plot and the population of cells of interest were gated. This gated population was then plotted as a histogram displaying fluorescence intensity and the mean fluorescence intensity (MFI) calculated. MFI values were then plotted in GraphPad Prism 5 software to generate dose response curves.

[4] = biological target: T3, Human LAG-3 on cells (human LAG-3 …); test: flow cytometry (MFI), Alexa647-conjugated antibody titrated on human LAG-3 expressing EL4 cells; direct binding curve, half-maximal value labelled IC50 in the table under the graph; unit taken from the concentration axis
Experimental: Human LAG-3 expressing EL4 cells were incubated with either IMP731, H5L7 or H5L7BW Alexa647-conjugated antibodies at varying concentrations of up to 50 μg/ml for 30 minutes at room temperature. Cells were washed with FACS buffer (PBS+0.5% BSA) to remove unbound antibody.
as §2

| Binder | fold improvement in affinity against human recombinant LAG-3 ECD-His6 [1] [fold] | Kd [2] [nM] | IC50 [3] [ng/mL] | IC50 [4] [µg/mL] |
| --- | --- | --- | --- | --- |
| IMP731 (antibody, human IgG1, kappa, Chimeric (murine variable domains, human IgG1/kappa constant regions); also called A9H12; chimeric antibody IMP731) heavy: not shown light: DIVMTQSPSSLAVSVGQKVTMSCKSSQSLLNGSNQKNYLAWYQQKPGQSPKLLVYFASTRDSGVPDRFIGSGSGTDFTLTISSVQAEDLADYFCLQHFGTPPTFGGGTKLEIKRTVAAPSVFIFPPSDEQLKSGTASVVCLLNNFYPREAKVQWKVDNALQSGNSQESVTEQDSKDSTYSLSSTLTLSKADYEKHKVYACEVTHQGLSSPVTKSFNRGEC | ~100 | 2.76 | 2.14 | 0.013 |
| H5L7BW (antibody, human IgG1, kappa, afucosylated: no fucose on the core carbohydrate structure attached to Asn297, Same plasmids as H5L7, expressed in the BioWa POTELLIGENT (FUT8 knock-out CHO) cell line; also called afucosylated antibody H5L7BW; afucosylated H5L7) heavy: not shown light: DIQMTQSPSSLSASVGDRVTITCKSSQSLLNPSNQKNYLAWYQQKPGKAPKLLVYFASTRDSGVPSRFSGSGSGTDFTLTISSLQPEDFATYYCLQHFGTPPTFGQGTKLEIKRTVAAPSVFIFPPSDEQLKSGTASVVCLLNNFYPREAKVQWKVDNALQSGNSQESVTEQDSKDSTYSLSSTLTLSKADYEKHKVYACEVTHQGLSSPVTKSFNRGEC | 10 | 0.218 | 3.07 | 0.0169 |
| H5L7 (antibody, human IgG1, kappa, Humanised IgG1/kappa of A9H12 (IMP731); also called fucosylated H5L7; non-ADCC enhanced variant H5L7) heavy: not shown light: DIQMTQSPSSLSASVGDRVTITCKSSQSLLNPSNQKNYLAWYQQKPGKAPKLLVYFASTRDSGVPSRFSGSGSGTDFTLTISSLQPEDFATYYCLQHFGTPPTFGQGTKLEIKRTVAAPSVFIFPPSDEQLKSGTASVVCLLNNFYPREAKVQWKVDNALQSGNSQESVTEQDSKDSTYSLSSTLTLSKADYEKHKVYACEVTHQGLSSPVTKSFNRGEC | 10 | 0.208 | 3.06 | 0.0142 |
